Test results as given in US20260098093A1.

Target: recombinant human VISTA-Fc protein (R&D #7126-B7) (human) (UniProt Q9H7M9)
Assay: ELISA: plate coated with human VISTA-Fc, LRIG1.HIS titrated (x axis labelled 'Antibody Concentration (log M)')

Sequence of recombinant human VISTA-Fc protein (R&D #7126-B7) (human) (Q9H7M9 33-194 limits assumed): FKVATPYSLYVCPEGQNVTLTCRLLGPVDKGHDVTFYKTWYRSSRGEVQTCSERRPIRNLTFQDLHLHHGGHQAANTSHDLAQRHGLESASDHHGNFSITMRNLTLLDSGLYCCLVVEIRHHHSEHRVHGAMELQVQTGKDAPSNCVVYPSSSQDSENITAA

Question: “recombinant human LRIG1.HIS (from UniProt Q96JA1 35-794) (receptor)” was tested. Which EC50 (read off the curve) did it give?
Answer: Its EC50 (read off the curve) is 9 nM.
